Laboratory results reported in PMC10628234.

Molecular target: Coxiella burnetii Fic enzyme 2 (CbFic2), wild type, untagged (Coxiella burnetii) (UniProt Q83DB6)
Assay: crystal structure

Substance “Coxiella burnetii Fic enzyme 2 (CbFic2), wild type, untagged (from UniProt Q83DB6 1-378)” has a stoichiometry N of 2.
